Results as given in paper PMC4102767.

Tests used:
Dpb11 [1] = target: Dpb11 (UniProt P47027); test: Flag purification, SILAC quantitative MS; conditions: reference: wild type; sites S486
Dpb11 [2] = target: Dpb11 (UniProt P47027); test: anti-Flag co-IP, Western blot; conditions: reference: wild type (undamaged or MMS); sites S486

Substance | fold change (Dpb11 [1]) | binding against the reference (Dpb11 [2])
Slx4 (from UniProt Q12098) S486A | weaker | –
Slx4 (from UniProt Q12098) S486A (undamaged or MMS) | – | weaker
